{"source": "patent US20190177410A1", "about": "(Regeneron, published 2019)", "binders": {"B1": {"name": "H4H9092P (antibody, human IgG4, V domains shown)", "VH": "EVQLVESGGGLVKPGGSLRLSCAASGITFSNAWMSWVRQAPGKGLEWVGRIKSKVDGGTIDYAAPVKGRFTISRDDSKNTLYLQMNSLKTEDTAVYYCTTGRITMVRGVLGYWGQGTLVTVSS", "VL": "not shown"}}, "target": "T1, full-length human APLNR (hAPLNR) (human, UniProt P35414 1-380)", "T1 sequence": "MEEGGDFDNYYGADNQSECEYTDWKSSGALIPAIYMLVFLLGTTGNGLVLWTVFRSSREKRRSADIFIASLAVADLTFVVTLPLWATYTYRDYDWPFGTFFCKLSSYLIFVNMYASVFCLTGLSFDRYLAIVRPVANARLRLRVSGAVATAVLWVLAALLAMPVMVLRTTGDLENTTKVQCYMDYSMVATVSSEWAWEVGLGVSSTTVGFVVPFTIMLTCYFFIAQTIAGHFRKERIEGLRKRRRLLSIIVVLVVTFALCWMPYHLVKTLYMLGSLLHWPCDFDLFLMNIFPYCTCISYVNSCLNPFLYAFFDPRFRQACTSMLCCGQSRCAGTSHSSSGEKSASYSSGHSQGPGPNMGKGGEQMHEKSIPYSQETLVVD", "test": "cell-based or functional assay"}
{"binder": "B1", "values": [{"measurement": "% Inhibition at 100 nM mAb, in the presence of 100 pM Apelin (at 10 uM Forskolin), CRE-luc", "value": 5, "unit": "%"}]}
